Consider four proteins from article PMC10527703 (Structure (London, England : 1993), 2023).

This data set deals with the molecule itself. In words: ThT fluorescence aggregation + negative-stain TEM.

Turning to KDNIQHVPGGGSVQIVYK (peptide, UniProt P10636-8 294-311, looked up) [R2R3_2Q], the binding result is on record as “binds”.

For the protein TENLQHQPGGGKVQIVYQ (peptide, UniProt P10636-8 263-274, looked up) [R1R3_13Q], the binding result was “binds”.

For the protein TENLQHQPGGGQVQIVYK (peptide, UniProt P10636-8 263-274, looked up) [R1R3_12Q], the binding result is “binds”.

For TENLKHQPGGGQVQIVYQ (peptide, UniProt P10636-8 263-274, looked up) [R1R3_23Q], the binding result is listed as “binds”.
